From patent US20220177580A1 (Amgen, published 2022) come the findings set out here.

Assay [1] has as its target T1, human FcγRI (His-tagged, soluble, captured for SPR) (human, UniProt P12314 16-292, limits assumed).
T1 construct: His-tagged human FcγR expressed in CHO cells, purified in house and captured by an anti-His antibody on a CM5 chip; also called CD64; not shown: His tag
Briefly: SPR, His-tagged FcγR captured by anti-His antibody, antibody injected. Here is the method: (§1) Surface plasmon resonance experiments were performed using the SPR T-200 instrument. His-tagged human FcγRs were expressed in CHO cells and purified in house mouse anti-his capture antibody was immobilized at approximately 5000 RU on a Series S Sensor Chip CM5 (GE Healthcare) using Instrument Buffer (0.005% P20 in PBS). FcγRs were diluted to 3.3˜10 nM in running buffer (0.005% P20, 0.1 mg/mL BSA in PBS) and injected at 10 μL/min for 1.5 min for the capture step. Panitumumab samples were diluted in running buffer (PBS+0.005% P20+0.1 mg/mL BSA) over a range of concentrations from 0.4 nM-20000 nM and injected over the captured FcγR with association and dissociation times of 3 minutes at 50 μL/min. The chip surface was regenerated by injecting 10 mM glycine, pH 1.7 at 30 μL/min for 30 s.
For orientation: SPR reads the build-up and loss of mass on a sensor chip optically.

Assay [2] addresses T2, huFcγRIIa-131H (His-tagged, soluble, captured for SPR) (human, UniProt P12318 34-217, limits assumed).
T2 construct: His-tagged human FcγR expressed in CHO cells, purified in house and captured by an anti-His antibody on a CM5 chip; also called FcγRIIa-H131; not shown: His tag
T2 sequence (looked up): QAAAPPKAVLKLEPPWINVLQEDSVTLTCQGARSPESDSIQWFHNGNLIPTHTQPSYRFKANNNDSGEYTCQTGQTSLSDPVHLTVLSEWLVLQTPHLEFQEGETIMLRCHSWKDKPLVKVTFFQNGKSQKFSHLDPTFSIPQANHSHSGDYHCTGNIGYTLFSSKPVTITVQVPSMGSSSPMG
Description: SPR, His-tagged FcγR captured by anti-His antibody, antibody injected; unenriched panitumumab; apparent KD. Here is the method:
as §1

Assay [3] has as its target T2, huFcγRIIa-131H (His-tagged, soluble, …). Briefly: SPR equilibrium binding, His-tagged FcγR captured by anti-His antibody; fucose enriched; equilibrium binding. Here is the method:
as §1
(§2) To try to assess the affinity of panitumumab and the various enriched glycan species for FcγRs, we measured the biding of panitumumab samples to all three human Fcγ Receptors by surface plasmon resonance (SPR). […] The binding was further assessed for the fucose and afucose enriched panitumumab samples by equilibrium binding (FIGS. 11A-11B). […]

For assay [4] the target is unchanged. Briefly: SPR equilibrium binding, His-tagged FcγR captured by anti-His antibody; afucose enriched; equilibrium binding. Here is the method:
as §1, §2

T1 sequence (P12314 16-292 limits assumed): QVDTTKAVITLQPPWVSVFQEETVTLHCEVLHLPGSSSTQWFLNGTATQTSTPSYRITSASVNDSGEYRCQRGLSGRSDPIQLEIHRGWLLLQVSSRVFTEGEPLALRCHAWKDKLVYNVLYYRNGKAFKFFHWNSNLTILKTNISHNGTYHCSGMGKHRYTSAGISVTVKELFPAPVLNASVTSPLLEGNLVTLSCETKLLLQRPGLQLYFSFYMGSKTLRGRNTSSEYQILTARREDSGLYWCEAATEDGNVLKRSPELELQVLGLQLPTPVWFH

B1: Panitumumab (antibody, human IgG2, kappa)
heavy: QVQLQESGPGLVKPSETLSLTCTVSGGSVSSGDYYWTWIRQSPGKGLEWIGHIYYSGNTNYNPSLKSRLTISIDTSKTQFSLKLSSVTAADTAIYYCVRDRVTGAFDIWGQGTMVTVSSASTKGPSVFPLAPCSRSTSESTAALGCLVKDYFPEPVTVSWNSGALTSGVHTFPAVLQSSGLYSLSSVVTVPSSNFGTQTYTCNVDHKPSNTKVDKTVERKCCVECPPCPAPPVAGPSVFLFPPKPKDTLMISRTPEVTCVVVDVSHEDPEVQFNWYVDGVEVHNAKTKPREEQFNSTFRVVSVLTVVHQDWLNGKEYKCKVSNKGLPAPIEKTISKTKGQPREPQVYTLPPSREEMTKNQVSLTCLVKGFYPSDIAVEWESNGQPENNYKTTPPMLDSDGSFFLYSKLTVDKSRWQQGNVFSCSVMHEALHNHYTQKSLSLSPGK
light: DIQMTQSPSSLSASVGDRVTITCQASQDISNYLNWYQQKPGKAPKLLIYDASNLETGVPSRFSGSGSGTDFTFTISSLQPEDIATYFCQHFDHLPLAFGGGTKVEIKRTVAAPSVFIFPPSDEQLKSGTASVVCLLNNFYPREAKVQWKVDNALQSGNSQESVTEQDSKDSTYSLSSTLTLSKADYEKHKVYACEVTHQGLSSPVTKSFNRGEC
modifications: N-linked glycan at N-297 (Kabat EU numbering; residue 295 of SEQ ID NO:1)
notes: Human IgG2 anti-EGFR monoclonal antibody produced in CHO cells at Amgen; unfractionated glycan profile; also called Vectibix; IgG2 (Panitumumab)
Take B1: the binding result in assay [1] is recorded as “no binding (tested: 10 µM)”. For the same molecule, the Kd in assay [2] is around 20 µM.

B2: fucose enriched panitumumab (antibody, human IgG2, kappa)
heavy: QVQLQESGPGLVKPSETLSLTCTVSGGSVSSGDYYWTWIRQSPGKGLEWIGHIYYSGNTNYNPSLKSRLTISIDTSKTQFSLKLSSVTAADTAIYYCVRDRVTGAFDIWGQGTMVTVSSASTKGPSVFPLAPCSRSTSESTAALGCLVKDYFPEPVTVSWNSGALTSGVHTFPAVLQSSGLYSLSSVVTVPSSNFGTQTYTCNVDHKPSNTKVDKTVERKCCVECPPCPAPPVAGPSVFLFPPKPKDTLMISRTPEVTCVVVDVSHEDPEVQFNWYVDGVEVHNAKTKPREEQFNSTFRVVSVLTVVHQDWLNGKEYKCKVSNKGLPAPIEKTISKTKGQPREPQVYTLPPSREEMTKNQVSLTCLVKGFYPSDIAVEWESNGQPENNYKTTPPMLDSDGSFFLYSKLTVDKSRWQQGNVFSCSVMHEALHNHYTQKSLSLSPGK
light: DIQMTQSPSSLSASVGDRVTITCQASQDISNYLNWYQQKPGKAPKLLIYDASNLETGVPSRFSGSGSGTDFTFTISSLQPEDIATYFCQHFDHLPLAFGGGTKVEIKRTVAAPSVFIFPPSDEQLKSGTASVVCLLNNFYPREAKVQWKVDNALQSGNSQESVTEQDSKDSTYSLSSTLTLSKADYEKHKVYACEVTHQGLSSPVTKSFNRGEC
modifications: N-297 glycan (residue 295 of SEQ ID NO:1) enriched for fucosylated species (flow-through of FcγIIIa affinity column; terminal galactose removed with β-(1-4)-galactosidase)
notes: also called fucosylated panitumumab; afucose-depleted (flow-through) mAb
In assay [3], B2 yielded a Kd of around 7.9 µM.

B3: afucose enriched panitumumab (antibody, human IgG2, kappa)
heavy: QVQLQESGPGLVKPSETLSLTCTVSGGSVSSGDYYWTWIRQSPGKGLEWIGHIYYSGNTNYNPSLKSRLTISIDTSKTQFSLKLSSVTAADTAIYYCVRDRVTGAFDIWGQGTMVTVSSASTKGPSVFPLAPCSRSTSESTAALGCLVKDYFPEPVTVSWNSGALTSGVHTFPAVLQSSGLYSLSSVVTVPSSNFGTQTYTCNVDHKPSNTKVDKTVERKCCVECPPCPAPPVAGPSVFLFPPKPKDTLMISRTPEVTCVVVDVSHEDPEVQFNWYVDGVEVHNAKTKPREEQFNSTFRVVSVLTVVHQDWLNGKEYKCKVSNKGLPAPIEKTISKTKGQPREPQVYTLPPSREEMTKNQVSLTCLVKGFYPSDIAVEWESNGQPENNYKTTPPMLDSDGSFFLYSKLTVDKSRWQQGNVFSCSVMHEALHNHYTQKSLSLSPGK
light: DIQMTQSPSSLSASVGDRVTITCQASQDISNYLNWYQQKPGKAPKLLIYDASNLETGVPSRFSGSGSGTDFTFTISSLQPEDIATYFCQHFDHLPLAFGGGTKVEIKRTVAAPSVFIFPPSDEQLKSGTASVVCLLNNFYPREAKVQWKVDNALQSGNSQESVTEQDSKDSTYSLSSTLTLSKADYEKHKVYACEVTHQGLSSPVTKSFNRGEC
modifications: N-297 glycan (residue 295 of SEQ ID NO:1) enriched for afucosylated species (Endo-H treatment, eluate of FcγIIIa affinity column; terminal galactose removed with β-(1-4)-galactosidase)
notes: also called afucosylated panitumumab; afucose enriched (eluate) mAb
As to B3, the Kd in assay [4] was around 8 µM.
